Measurements reported in patent US20220177575A1 (MAGENTA THERAPEUTICS, published 2022).

Biological target: T1, Human CD117 antigen (human, UniProt P10721 26-520)
T1 construct: also called c-kit; Stem Cell Factor Receptor
Experiment: chemical cross-linking, High-Mass MALDI MS and nLC-Orbitrap MS of the complex

T1 sequence (P10721 other isoform, or with tags, fused parts or gaps limits assumed): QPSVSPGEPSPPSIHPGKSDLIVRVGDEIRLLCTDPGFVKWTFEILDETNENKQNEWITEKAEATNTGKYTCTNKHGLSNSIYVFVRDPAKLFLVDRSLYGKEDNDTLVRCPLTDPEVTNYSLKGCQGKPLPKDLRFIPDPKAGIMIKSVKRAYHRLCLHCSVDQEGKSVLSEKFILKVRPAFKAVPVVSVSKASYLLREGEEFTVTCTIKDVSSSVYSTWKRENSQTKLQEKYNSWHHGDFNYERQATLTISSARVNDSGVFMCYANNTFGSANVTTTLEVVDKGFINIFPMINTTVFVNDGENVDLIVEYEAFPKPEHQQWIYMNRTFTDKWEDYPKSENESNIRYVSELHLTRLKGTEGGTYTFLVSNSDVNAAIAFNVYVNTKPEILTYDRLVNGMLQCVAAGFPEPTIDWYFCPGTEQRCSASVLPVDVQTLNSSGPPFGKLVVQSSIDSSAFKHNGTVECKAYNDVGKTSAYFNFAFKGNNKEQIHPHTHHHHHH

B1: anti-CD117 antibody 85 (Ab85) (antibody, V domains shown)
VH: EVQLVQSGAEVKKPGESLKISCKGSGYSFTNYWIGWVRQMPGKGLEWMAIINPRDSDTRYRPSFQGQVTISADKSISTAYLQWSSLKASDTAMYYCARHGRGYEGYEGAFDIWGQGTLVTVSS
VL: DIQMTQSPSSLSASVGDRVTITCRSSQGIRSDLGWYQQKPGKAPKLLIYDASNLETGVPSRFSGSGSGTDFTLTISSLQPEDFATYYCQQANGFPLTFGGGTKVEIK
notes: Human antibody derived from CK6; also called Antibody HC-85/LC-85
B1: binds.
